Measured values taken from the supplement of paper PMC9170038.

Test system: MS2 coat protein
Assay: apparent KD of MS2 coat protein; designed switch direction (-1 OFF switch, 1 ON switch): -1; higher = weaker reporter binding
Outline: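 Designed RNA switches with common flanks were made on Illumina chips by stalled E. coli RNA polymerase. Titration with SNAP-549-labelled MS2 coat protein doubled from 0.7 or 1.5 nM up to 3 µM. Apparent KD is each design's median over clusters after curve-fitting normalised fluorescence.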

[1] = Eterna round: R95, input ligand: FMN 200 uM
[2] = Eterna round: R95, input ligand: microRNA oligo, concentration not stated
[3] = Eterna round: R95, input ligand: none
[4] = input ligand: microRNA oligo, concentration not stated

Sequence	apparent KD of MS2 coat protein [1] [nM]	apparent KD of MS2 coat protein [2] [nM]	apparent KD of MS2 coat protein [3] [nM]	apparent KD of MS2 coat protein (input ligand: FMN 200 uM) [nM]	apparent KD of MS2 coat protein (input ligand: none) [nM]	apparent KD of MS2 coat protein [4] [nM]
GUGAAGUGAGGAUAUACGAGAGAGGCUGAACCUGGAGAGAAGUAGAAGGCACAUGAGGAUCACCCAUGUAAGGA [JR_Exclu4_Sub020] (puzzle: Exclusion 4)	36.7	36.1	34.4			
AACAGUCUAGAGGAUAUGUGCGAUUAAUAUCGUGCAGAAGGCUGGACAUGAGGAUCACCCAUGUAAAUACUACC [Omei Ex6 A16] (Eterna round: R97, puzzle: Exclusion 6)				79.4	34	
AUGGGUCCUCACGGAGCUACAUGAGGAUCACCCAUGUGGAUUGAGGAUAUCCACUGCCGACGGCUGGAGAAGGCAGUUUACUGU [Ex NG3 #94] (Eterna round: R96, puzzle: Exclusion NG 3)				57.5	49.9	36
GAUUGACAUGAGGAUCACCCAUGUGAGGAUAUCGGCUGGACCGUGUUGGCUUGCUUUCCGAGAAGGCGCAUAGG [Exclusion 1 V50] (puzzle: Exclusion 1)	81.7	36.9	45.9			
AUACCACGAGGAUAUCGUCUAUAUUACAUGAGGAUCACCCAUGUUAUAUUUGUAAUGUUUCGAGAAGGCGUGUUUU [JR_E5_Sub081] (puzzle: Exclusion 5)		14.4				
UUGUUAUGUGUAGGAUAUGCGUGUUAUUAUUAUGCAGAAGGACAUGAGGAUCACCCAUGUGUAUUAUUAUUAUAUAUUAUAUAU [Title] (Eterna round: R96, puzzle: Exclusion NG 1)				20	19.9	15.8
CGUGACUCAGGAUAUGUAUUAUAUCACAUGAGGAUCACCCAUGUCCAGCGAAAGCUGGAGGCAGAAGGGAGUCACG [Fiskers Ex 5 - 47] (puzzle: Exclusion 5)	41.4	87.6	106			
GGUUGACAUGAGGAUCACCCAUGUGAGGAUAUGCGAGAGAAAAAAGUGAGGAAGAAACGCAGAAGGCGCUGUCG [salish99-ex1_r3_010] (puzzle: Exclusion 1)	59.3	163	133			
CGGGCCCGGGCAGGAUAUGCGGCGGCCCGGGCCGGUGGGCCCGGGCCGACAUGAGGAUCACCCAUGUAGAAGGGCCCGGGCCCG [low energy, MS2 in another position, A 14%] (Eterna round: R96, puzzle: Exclusion NG 2)				15.7	16.1	10.7
AGGGACGGCUGAGGAUAUAUGUAGAGUGAGAUAGUAGAAGGCAGACAUGAGGAUCACCCAUGUAUCGGUCCUCAUAUCUCGUAU [Default title] (Eterna round: R96, puzzle: Exclusion NG 1)				14.3	17.7	15.9
CCUUGACAUGAGGAUCACCCAUGUUAGGAUAUAACAUUUGACACUACAGUAUGAAGUGUUAGAAGGGAUAUGGG [-22.5, -21 kcal, A 32%] (Eterna round: R97, puzzle: Exclusion 1)				39.4	29.8	
CGGUGCUGAGGAUAUACAUGAGGAUCACCCAUGUGUUCUUGCUAGCGUACUGGCAGAUGUAGAAGGCGGUACUG [JL-ex3-3.45 Brourd mod] (puzzle: Exclusion 3)	99.7	19.7	22.7			
UUUCCCUGUGUGAGGAUAUACUUGUUUGGGUUUUUGUAGAAGGCACAUGAGGAUCACCCAUGUAUUUUGUCGUG [JR_BME4_Sub020] (puzzle: Brourd's mod of Exclusion 4)		40.9				
GAGCCAUCGUGAGAUGGCUAACAUACAUGAGGAUCACCCAUGUAGGAUAUCGAUUGCUUUGCAGUCGAGAAGGACAUGUUUAAU [JL ENG3 3.96] (Eterna round: R96, puzzle: Exclusion NG 3)						19.1
CAGCUGUCAGGAUAUCGUGCAUACAACGAAAGUUCUAUGUGCGAGAAGGGACAUGAGGAUCACCCAUGUUUCCG [Omei Ex4 A23] (Eterna round: R97, puzzle: Exclusion 4)				21.1	16.1	
UUUUUAUAACAAGGAUAUACUAAACAUGAGGAUCACCCAUGUAAUAUUAUGAGUGAGAGAGAGAAGUAGAAGGUGUAUUAUUUU [JMF solution 2] (Eterna round: R96, puzzle: Exclusion NG 2)						82.4
GUCUCAGCUGAGGAUAUAAACUCCCUUGAGGGUUUAGAAGGCAGUACAUGAGGAUCACCCAUGUGGUUCGUUUG [eternacac ex6r4 sub27] (Eterna round: R97, puzzle: Exclusion 6)				486	139	

Sequence	apparent KD of MS2 coat protein [1] [nM]	apparent KD of MS2 coat protein [2] [nM]	apparent KD of MS2 coat protein [3] [nM]	apparent KD of MS2 coat protein (input ligand: FMN 200 uM) [nM]	apparent KD of MS2 coat protein (input ligand: none) [nM]	apparent KD of MS2 coat protein [4] [nM]
GCGACAGCGGUUAGGAUAUAUGUUAGGACGUAGAUAUAGAAGGAACAUGAGGAUCACCCAUGUUUAAAAUGGGA [Eternabot (L1) Solution 71] (Eterna round: R97, puzzle: Brourd's mod of Exclusion 4)				69.5	71.9	
AGAUGUAGAUACCGAUCCUACAUGAGGAUCACCCAUGUAGCUAGACGUGCACGCGUAGCUCGUCAGACUACCAGUAG [salish99_TOv1_r3_086] (puzzle: Sensor v3, turn-off variant 1)	372	336	363			
UUAAUUAAUUGCGCAAGAUCACAUGAGGAUCACCCAUGUAUAUAGGAUAUCAGCUCGAUUAGAGCUGAGAAGGAUAUACAGCGC [ExNG3/3-A1] (Eterna round: R96, puzzle: Exclusion NG 3)				711	313	192
UAUUAGCAAGUGAGAUCCCACAUGAGGAUCACCCAUGUGCUCGUCUUAUAAGGUACUGUGACGAUAGUCACGGUACC [Mat - Sensor, turn-off var - Eli Mod - D1] (Eterna round: R97, puzzle: Sensor, turn-off variant 1)				49.9	49	
GUAAAUCAUGUAGGAUAUGCAUAGCAAAGCUAUGCAGAAGGACAUGAGGAUCACCCAUGUCAUUCCGUCUGGAGACAGACGGGA [Mat - Exclusion NG 1 - Mod of JL - D58] (Eterna round: R96, puzzle: Exclusion NG 1)				270	36.7	22.5
UACAUGAGGAUCACCCAUGUUUUGUCGUGUAUGGUAUUUAUCUAGGAUAUCAUUUUAUUGAGUUAUGAGAAGGAGAAUAUUAAU [JMF's solution 91] (Eterna round: R96, puzzle: Exclusion NG 3)				39.8	32.3	28.5
CAACUGUGAGGAUAUGGUGAGUAGUGCCUGAGCGCUGCUCACCAGAAGGCACAUGAGGAUCACCCAUGUAUGAC [JL-ex4-2.02 denovo] (puzzle: Exclusion 4)		38.3				
AGCUGUGGCCGAGGAUAUCUGAAAACUCAAACCGAAAUAUAAUCGGACAUGAGGAUCACCCAUGUAGAGAAGGCGGUCUCAGCA [Eli eng2 - 062] (Eterna round: R96, puzzle: Exclusion NG 2)						45.7
GAAAAGGUAGGAUAUACGAAAAAAAAGGGUAGAAAAAAAACACAUGAGGAUCACCCAUGUAGAAGGACCAAAGG [salish99_ex2_r3_040] (puzzle: Exclusion 2)	46.3	28.5	26			
AUAAUUUAAGUGAGGAUAUACCUAUGGAAACAUAGGUAGAAGGCACAUGAGGAUCACCCAUGUUCCUAUACAAA [Fiskers BMX 4 - 1] (puzzle: Brourd's mod of Exclusion 4)	16.5	12.7	9.08			
GACUGCUGAGGAUAUACAUGAGGAUCACCCAUGUGCUUCAGUAUCGAAAGAUACAUUGGUAGAAGGUAGUAGUC [LRO-Excl3-07] (puzzle: Exclusion 3)		11.1				
UGCAUGUAAGGAUAUGCAUCCGCCAACGAACCGGCGGCACAGCAGAAGGUACAUGAGGAUCACCCAUGUGUCCC [Isonrian] (Eterna round: R96, puzzle: Exclusion 4)				357	29.8	25
UUGUUAUAUGUAGGAUAUGCAUAUUGUUAUUAUGCAGAAGGACAUGAGGAUCACCCAUGUAUAUUAUUAUUAUAUAUUAUAUAU [Title] (Eterna round: R96, puzzle: Exclusion NG 1)						22.5
GAUACACAUGAGGAUCACCCAUGUGAGGAUAUGCGUACGUUGUCCGUAGGCGACGUGCGCAGAAGGCGCUUGGU [Mat - Mod of JL D98] (puzzle: Exclusion 1)		57.3				
GUAGAGUAAGGAUAUGCUGAAUAGGAUAGAAUGGUUAGAAAGCAGAAGGUACAUGAGGAUCACCCAUGUAAUGU [Excluse me!!!! 18 - Jieux - Exclusion 4] (puzzle: Exclusion 4)		20				
AUCGUGUGAGGAUAUCGAUGUUGGACGUCUAGGUCUAAGCGCGAGAAGGCACAUGAGGAUCACCCAUGUAAUGG [jl-ex4-4.27 ViennaUCT mod] (Eterna round: R97, puzzle: Exclusion 4)				249	910	
AAAUACAAGUAAAGAUCCUACAUGAGGAUCACCCAUGUGCUCGUCUUGUAAAGUACUAUCACGAAAGUGAUAGUACU [Mat - Sensor v3 - turn-off var 1 - Eli Mod - D87] (puzzle: Sensor v3, turn-off variant 1)	45.3	29.7	47.7			
